From paper PMC4506093 come the findings set out here.

The target of assay [1] is highly purified 26S proteasome, extracted from transformed HEK cells.
Assay [2] shares this target. This is another data set of the same source.

In assay [1], “recombinant IDE expressed in Spodoptera frugiperda (from UniProt P35559 1-1019) (enzyme)” displayed an inhibition of the chymotryptic-like activity (50 micromol/L Suc-LLVY-AMC) of 1 nanomol/L 26S proteasome by IDE from 1 nanomol/L to 50 nanomol/L at 37°C; value at 50 nanomol/L IDE of 55% and an inhibition of the tryptic-like activity (50 micromol/L Boc-LLR-AMC) of 1 nanomol/L 26S proteasome by IDE from 1 nanomol/L to 50 nanomol/L at 37°C; value at 50 nanomol/L IDE of 65 to 70%. In assay [2], this substance gave an inhibition of the caspase-like activity (50 micromol/L Z-LLE-AMC, after subtracting IDE's own cleavage) of 1 nanomol/L 26S proteasome by IDE up to 50 nanomol/L at 37°C; value at 50 nanomol/L IDE of 60%.
